Bounds are passed on as bounds.

Results on three molecules are retold here after US20010011078A1 (University of Texas, published 2001).

The target of data set [1] is recombinant DFF40 tagged with six histidine at its C-terminus (human) (UniProt O76075). Kind of data set: cell-based or functional assay.
For data set [2], the system named is poly(ADP-ribose) polymerase (PARP).
For data set [3], the system named is T1, DFF45 (45-kDa subunit of DNA fragmentation factor), native human protein.
T1 sequence: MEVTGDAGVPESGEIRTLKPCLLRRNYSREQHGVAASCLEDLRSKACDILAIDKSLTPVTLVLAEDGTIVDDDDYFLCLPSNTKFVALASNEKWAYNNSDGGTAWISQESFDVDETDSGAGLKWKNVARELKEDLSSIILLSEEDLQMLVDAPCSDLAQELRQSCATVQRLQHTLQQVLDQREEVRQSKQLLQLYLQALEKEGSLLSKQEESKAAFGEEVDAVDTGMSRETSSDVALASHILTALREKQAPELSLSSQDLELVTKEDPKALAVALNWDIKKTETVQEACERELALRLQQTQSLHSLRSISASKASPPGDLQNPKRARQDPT

Data set [4] deals with T2, DFF45 fusion protein with a six-histidine tag at the NH2-terminus.
T2 sequence: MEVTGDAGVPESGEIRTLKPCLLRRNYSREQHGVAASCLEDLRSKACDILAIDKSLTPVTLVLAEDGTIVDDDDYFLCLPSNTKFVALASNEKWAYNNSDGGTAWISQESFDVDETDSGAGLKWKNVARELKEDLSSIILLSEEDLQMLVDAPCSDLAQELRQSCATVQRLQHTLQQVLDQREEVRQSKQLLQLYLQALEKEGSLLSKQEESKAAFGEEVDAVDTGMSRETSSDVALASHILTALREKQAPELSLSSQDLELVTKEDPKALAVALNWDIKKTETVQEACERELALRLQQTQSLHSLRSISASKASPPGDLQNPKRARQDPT

In data set [5] the test system is T3, DFF40 (40-kDa subunit of DNA fragmentation factor), native human protein.
T3 sequence: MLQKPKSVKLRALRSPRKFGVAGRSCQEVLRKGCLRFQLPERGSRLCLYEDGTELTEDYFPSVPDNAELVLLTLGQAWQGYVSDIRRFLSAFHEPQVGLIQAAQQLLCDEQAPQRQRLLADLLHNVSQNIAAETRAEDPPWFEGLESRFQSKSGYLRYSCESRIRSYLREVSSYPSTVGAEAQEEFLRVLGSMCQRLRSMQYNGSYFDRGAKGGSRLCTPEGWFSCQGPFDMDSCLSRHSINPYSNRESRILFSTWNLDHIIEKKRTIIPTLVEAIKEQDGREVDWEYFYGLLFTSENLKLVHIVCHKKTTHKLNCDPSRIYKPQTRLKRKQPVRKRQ

Data set [6] concerns the target T4, DFF40 (40-kDa subunit of DNA fragmentation factor), native human protein (human, UniProt O76075 1-338).
T4 construct: Native protein purified from HeLa S-100 as part of the DFF heterodimer; also called 40-kDa polypeptide
T4 sequence: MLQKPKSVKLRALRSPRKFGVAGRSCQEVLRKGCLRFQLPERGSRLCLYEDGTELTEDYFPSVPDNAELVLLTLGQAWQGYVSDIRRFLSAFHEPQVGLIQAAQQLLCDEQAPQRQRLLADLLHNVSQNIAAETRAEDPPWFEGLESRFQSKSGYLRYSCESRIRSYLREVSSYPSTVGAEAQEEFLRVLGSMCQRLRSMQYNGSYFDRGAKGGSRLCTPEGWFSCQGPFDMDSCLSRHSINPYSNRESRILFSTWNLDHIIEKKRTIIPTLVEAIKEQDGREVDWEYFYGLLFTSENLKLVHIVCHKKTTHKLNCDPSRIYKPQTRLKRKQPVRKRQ
Kind of data set: co-elution from the Mono Q column (last purification step), SDS-PAGE with Coomassie stain. The procedure:
Ammonium sulfate (1 M) was added directly to the SP-Sepharose 0.5 M eluate. After rotating at 4° C. for 1 hr, the sample were centrifuged at 15,000 rpm for 30 min in a Sovall IA-600 rotor. The supernate was directly loaded onto a 100 ml phenyl Sepharose column equilibrated with buffer A containing 1 M ammonium sulfate and 0.5 M NaCl. The column was washed with three bed volumes of buffer A containing 1 M ammonium sulfate and 0.5 M NaCl and the bound material was eluted with two bed volumes of buffer A. […] was added to the phenyl Sepharose eluate to 50% saturation. After stirring at 4° C. for 5 hr, the sample was centrifuged at 15,000 rpm for 15 min in a Sovall JA-600 rotor. The pellet was resuspended in buffer A and loaded onto a Superalex-200 16/60 gel filtration column (Pharmacia) equilibrated with buffer A and eluted with the same buffer. Fractions of 4 ml were collected and assayed for DFF activity. The active fractions from the gel filtration column were pooled and loaded onto a MonoS 10/10 column (Pharmacia) equilibrated with buffer A. The column was washed with 50 ml of buffer A and eluted with a 200 ml 0-0.2 M linear NaCl gradient. […]
DFF activity eluted from a Mono Q column, the last step of the purification, at about 250 mM NaCl. […] No other proteins were detected in fraction containing the peak of DFF activity.

Consider histone H1, for which the DNase activity of A-DFF40 on purified plasmid DNA in data set [1] is greater than 10 fold.

As for caspase-3 (active recombinant), the “rate of cleavage in isolated nuclei (immunoblot)” value in data set [2] is given as “The same conclusion was obtained when the rate of cleavage of PARP was measured”. In addition, the “cleavage of biotinylated DFF (SDS-PAGE, streptavidin-peroxidase chemiluminescence)” value in data set [3] was “Incubation with caspase-3 resulted in the cleavage of the 45-kDa subunit into fragments of molecular masses of 30 kDa and 11 kDa”; in data set [5], “the 40-kDa subunit remained intact”. Moreover, the “cleavage of the fusion protein (SDS-PAGE)” value in data set [4] is “Incubation of this fusion protein with caspase-3 resulted in its cleavage into three fragments of 30 kDa, 18 kDa and 11 kDa at the early time point”. For the same molecule, the “time course of cleavage in isolated nuclei (immunoblot)” value with lamin B1 is listed as “the rate of lamin B1 cleavage by caspase-3 remained the same with or without DFF”.

B1: DFF45 (45-kDa subunit of DNA fragmentation factor), native human protein (other)
chain: MEVTGDAGVPESGEIRTLKPCLLRRNYSREQHGVAASCLEDLRSKACDILAIDKSLTPVTLVLAEDGTIVDDDDYFLCLPSNTKFVALASNEKWAYNNSDGGTAWISQESFDVDETDSGAGLKWKNVARELKEDLSSIILLSEEDLQMLVDAPCSDLAQELRQSCATVQRLQHTLQQVLDQREEVRQSKQLLQLYLQALEKEGSLLSKQEESKAAFGEEVDAVDTGMSRETSSDVALASHILTALREKQAPELSLSSQDLELVTKEDPKALAVALNWDIKKTETVQEACERELALRLQQTQSLHSLRSISASKASPPGDLQNPKRARQDPT
notes: Native protein, purified from HeLa S-100 as part of the DFF heterodimer, or endogenous in 293 and U937 cell extracts; also called 45-kDa polypeptide; endogenous protein
In the case of B1, the binding result in data set [6] is on record as “binds”.
